Measured values published in US8329186B2, “Treatment of inflammation using BST2 inhibitor” (Isu Abxis Co., Ltd, priority 2004, dated 2012).
d = 2'-deoxy (DNA); r = 2'-OH (RNA)

Key:
HUVECs and U937 cells = experiment: Heterotypic aggregation/adhesion between IFN-γ-treated HUVECs and U937 cells; assay type: cell-based, human
Experimental: HUVECs (1−5×10^4 cells/ml) were seeded onto a 12-well cell culture plate. After one day, the medium was exchanged with a low-serum medium containing 0.5% FBS, and the cells were pretreated with interferon-gamma (IFN-γ; Calbiochem) in a final concentration 10 ng/ml for 24 hrs. Then, the pretreated HUVECs were co-cultured with U937 cells (2×10^6 cells/ml, 500 μl) at 37° C. for 4 hrs. The co-culture was washed with phosphate buffer three or four times, and the remaining cells were fixed with 4% paraformaldehyde and microscopically observed.
HUVECs were transfected with an expression vector for Bst2, treated with or without IFN-γ and then transfected with Bst2 siRNA. These cells were assessed for U937 cell adhesion.
(§1) HUVECs were cultured in 12-well plates with or without transfection of Bst2 siRNA or control siRNA for 6 hr, then treated with or without IFNγ for 24 hr. In some experiments, cells were treated with crude media containing Bst2 decoy or mouse anti-human ICAM1 antibodies. After a wash with PBS (phosphate buffered saline), U937 cells were resuspended in serum free medium at 2×10^6 cells/ml. Assays were initiated by the addition of 200 ul U937 cells to HUVEC for a final volume of 1 ml. After 4 hr at 37° C., unbound U937 cells were removed by washing plates three times with PBS. Bound cells were fixed by the addition of 4% paraformaldehyde in PBS, and the bound cells were counted under microscopy in different fields. All statistical analyses were performed in Excel and statistical significance were evaluated with Student's t test. In some experiments, RNA samples were obtained from HUVECs after treatment with IFNγ and/or siRNAs, and real-time polymerase chain reaction (RT-PCR) analyses were performed.

[1] = test system: ICAM1 expression or Bst2 expression; experiment: RT-PCR of Bst2 and ICAM1 expression in IFNγ-treated HUVEC after siRNA; assay type: cell-based, human
Experimental: as §1
RT-PCR analyses were performed.

U937 cells = experiment: Competitive inhibition of U937 cell binding to Bst2 decoy coated plates; design: species or system human; conditions: cells pre-incubated with fusion proteins 2 hrs
Experimental: Competitive inhibition of Fc fusion proteins in the binding between BST2 decoy and cells was measured as follows. Flat-bottomed 96-well plates were coated with Bst2 decoy (50 ug/ml) with sodium bicarbonate (100 mM, pH 9.5) for 2 hrs at 37° C. The plates were washed with PBS (pH 7.4) and incubated with 1% bovine serum albumin (BSA) at 25° C. After a rinse with PBS (pH 7.4) containing 1 mM CaCl2 and 0.5 mM MgCl2, U937 cells (1×10^6/ml) were added to each Bst2-coated well. Before the addition, cells were pre-incubated with BST2 decoy-Fc fusion proteins for 2 hrs at 37° C. Bound cells were counted as described in Example 20.

IL-4, IL-5 and IL-13 = experiment: Ovalbumin-induced mouse model of asthma: cytokines in lung tissue (immunoblot); assay type: in vivo; conditions: ovalbumin-sensitized asthmatic mice
Experimental: (§2) A mouse model of asthma was prepared by sensitizing mice (C57B6, 8 weeks) with ovalbumin. In detail, mice were initially sensitized for five continuous days by intranasal injection of ovalbumin. After three weeks, mice were intranasally sensitized again with ovalbumin for five continuous days. One week after the secondary sensitization, mice were challenged intranasally with ovalbumin three times every 24 hrs to induce asthma. Herein, a Bst2 decoy was intravenously injected into mice 30 min before sensitization with ovalbumin, and was injected into mice 30 min before the first sensitization and the last injection of ovalbumin. Three days after the last injection, serum samples, lung tissues, and the like were collected from mice.
When a Bst2 or Damp1 decoy was injected into a mouse model of asthma which was induced by sensitization and challenge with ovalbumin, expression levels of cytokines (interleukin-4 (IL-4), interleukin-5 (IL-5) and interleukin-13 (IL-13)) were measured as follows. […] The bound primary antibodies were detected with a HRP-conjugated secondary antibody (anti-rabbit HRP-conjugated IgG) using ECL reagent.
Expression of 11-4, IL-5 and IL-13 was measured in the murine asthma model as described in Example 8-3 after injection with Bst2 decoy or Bst2 decoy Fc fusion proteins.

mouse model of asthma = experiment: Ovalbumin-induced mouse model of asthma: infiltrating cells in bronchoalveolar lavage; assay type: in vivo; conditions: ovalbumin-sensitized mice
Experimental: as §2
A mouse model of asthma was prepared as described in Example 8-1.
The effect of Bst2 decoy-Fc fusions on immune cell infiltration was assessed as described in Example 8-2. When ovalbumin-sensitized mice were treated with a Bst2 decoy, the total number of infiltrating cells was decreased and, especially, the number of neutrophils, eosinophils and lymphocytes except for macrophage was decreased in bronchoalveolar lavage (BAL) (FIG. 27).
A mouse model of asthma was prepared as described in Example 8-1. The effect of anti-Bst2/Damp1 antibodies on immune cell infiltration was assessed as described in Example 8-2. […]

[2] = In vivo stability of PEG-conjugated Bst2 decoy in rats (ELISA of blood samples); design: species or system rat; conditions: tail vein, 0.4 to 2 mg/kg, compared to Bst2 decoy
Experimental: The PEG-conjugated forms of Bst2 decoy, prepared in Example 11-1, were injected into the tail vein of 7 week-old male Sprague-Dawley rats in a dose of 0.4 to 2 mg/kg. A negative control group was injected with an equal dose of physiological saline. Also, an equal dose of Bst2 decoy protein was used as a positive control. Blood samples were collected before drug administration, and 2 min, 5 min, 10 min, 30 min, 1 hr, 2 hrs, 6 hrs, 12 hrs and 24 hrs after drug administration from the jugular vein using a cannula. The collected blood samples were analyzed by ELISA. A 96-well plate was coated with an anti-Bst2 decoy antibody (100 ng/ml in PBS) at 4° C. for 8 hrs or longer, and was blocked with albumin in PBS at 37° C. for 2 hrs. The plate was reacted with a proper dilution of rat serum or Bst2 decoy (standard sample) at 37° C. for 2 hrs. The plate was then reacted with a monoclonal antibody (mAb conjugated with horseradish peroxidase, Roche Inc.) recognizing the histidine tag added to the C-terminus of Bst2 decoy at 37° C. for 2 hrs. After being well washed, the plate was treated with a substance of peroxidase, and absorbance was measured at 450 nm. Quantitation of the PEG-conjugated Bst2 decoys present in blood was performed using the standard samples (FIG. 18). […]

Bst2 siRNA: siRNA against Bst2 mRNA target sequence SEQ ID NO:5; sense SEQ ID NO:6, antisense SEQ ID NO:7 (sense UUGUCCGCGAUUCUCACGCTT; antisense GCGUGAGAAUCGCGGACAATT; sugars from the 5' end r19 d2, backbone not given here)
U937 cell adhesion to HUVECs (HUVECs and U937 cells; HUVECs transfected with Bst2 expression vector, with or without IFN-γ): decreased U937 cell adhesion | cell adhesion between untransfected HUVEC and U937 cells (HUVECs and U937 cells; untransfected HUVEC, IFNγ stimulation): inhibitory effect | ICAM1 expression [1]: does not affect

B1: Bst2 decoy-IgG Fc fusion proteins: recombinant chimeric fusion proteins of the extracellular domain of human Bst2 and the Fc region of human IgG (protein)
chain: NSEACRDGLRAVMECRNVTHLLQQELTEAQKGFQDVEAQAATCNHTVMALMASLDAEKAQGQKKVEELEGEITTLNHKLQDASAEVERLRRENQVLSVRIADKKYYPSSQD
modifications: left off: a dimerising Fc or GST
inhibition of U937 cell binding to Bst2 decoy coated cell culture plates (U937 cells): concentration-dependent inhibition | cytokine levels (IL-4, IL-5, IL-13) in lung tissue (IL-4, IL-5 and IL-13): decreased

B2: mouse Damp1 decoy: soluble Damp1 protein fragment having the amino acid sequence of SEQ ID NO:2 (protein, listed as Mus musculus)
chain: FAVTANSVACRDGLRAQAECRNTTHLLQRQLTRTQDSLLQAETQANSCNLTVVTLQESLEKKVSQALEQQARIKELENEVTKLNQELENLRIQKETSSTVQVNS
cell-cell interaction between human endothelial cells and human monocytic U937 cells (HUVECs and U937 cells): inhibits cell-cell interaction

B3: 2-15: anti-Bst2/Damp1 monoclonal antibody; heavy chain variable SEQ ID NO:77, kappa SEQ ID NO:88 (antibody, V domains shown)
VH: MAQSVKESEGRLVTPGTPLTLTCTVSGFSLSNSGMSWVRQAPGKGLEWIGLINSYGTTYYASWAKGRFTISKTSTTVELKITSPTTEDTATYFCARGAGSSYGLWGQGTLVTVSSAS
VL: QAAELVMTQTPSSTSTAVGDTVTIKCQASQSIGSNLAWYQQKPGQPPKILIYSASNLASGVPSRFKGSGSGTEYTLTISGVQREDAATYYCLGSDSSWDTVFGGGTELEILRTV
modifications: 2-15 heavy chain variable region amino acid sequence; 2-15 kappa chain variable region amino acid sequence
number of infiltrating cells in bronchoalveolar lavage (total, neutrophils, eosinophils, lymphocytes) (mouse model of asthma): did not block immune cell infiltration significantly

B4: PEG-conjugated Bst2 decoy: aldehyde PEG-conjugated human Bst2 decoy sample (conjugate, UniProt Q10589 49-161, looked up)
extracellular domain: NSEACRDGLRAVMECRNVTHLLQQELTEAQKGFQDVEAQAATCNHTVMALMASLDAEKAQGQKKVEELEGEITTLNHKLQDASAEVERLRRENQVLSVRIADKKYYPSSQDSS
modifications: extracellular domain aldehyde PEG conjugate
notes: aldehyde PEG-conjugated human Bst2 decoy sample
metabolic degradation (in vivo stability) [2]: improved metabolic degradation
